Results: patent US20220204623A1 (BIO THERA SOLUTIONS, published 2022)

Legend:
[1] = target: hPD-1 (Sino Biological Inc., Catalog No.: 10377-H03H-B) (human) (UniProt Q15116); assay: BLI (Octet) as in Example 4, biotinylated hPD-1 on streptavidin biosensor
[2] = target: T1, hPD-1 on hPD-1-expressing Jurkat cells (Promega, Catalog No.: J1252) (human, UniProt Q15116 25-288); assay: cell-based or functional assay
[3] = target: T2, hPD-1 (Sino Biological Inc., Catalog No.: 10377-H03H-B) (human, UniProt Q15116 25-167); assay: ELISA, hPD-1 coated on the plate
T2 construct: Bought protein; also called human PD-1; purified hPD-1
Procedure: The binding of the antibodies to hPD-1 was determined by enzyme-linked immunosorbent assay (ELISA). hPD-1 was coated on a 96-well plate by incubation overnight at 4° C. After coating, the plate was washed 5 times with PBST. […] After the binding, the plate was washed 5 times with PBST. The resulting solution was incubated at room temperature in PBST that contained peroxidase (HRP)-labeled goat anti-mouse IgG solution diluted to 1/10000 for 1 hour, washed again, and developed with TMB.

[4] = target: T2, hPD-1 (Sino Biological Inc., Catalog …); assay: BLI (Octet) as in Example 4, biotinylated hPD-1 on streptavidin biosensor
Procedure: (§1) A streptavidin biosensor was pre-wetted by immersing in PBS in a well for 10 minutes, and then the biosensor was equilibrated with PBS for 2 minutes. The biosensor was immersed in the solution of 20 μg/mL biotinylated hPD-1 in PBS for 5 minutes to couple with biotinylated hPD-1, and then was equilibrated with PBS for 2 minutes. The biosensors were placed in wells containing antibody solutions of various concentrations (0.125 to 2 nM, SDS-PAGE purity >99%) to observe their binding to the anti-PD-1 antibody, and the binding was monitored and measured for 30 minutes. After the biosensor was transferred to PBS, dissociation was monitored and measured for 90 minutes. The observed binding and dissociation rates (kbinding and kdissociation) were fitted with a 1:1 binding global fit model containing all test concentrations, and the equilibrium binding constant KD was calculated.
The amino acid sequences of VL and VH regions of the related antibodies are shown in the sequence listing.

[5] = target: T1, hPD-1 on hPD-1-expressing Jurkat cells …; assay: flow cytometry, blocking of 1 ug/mL unlabeled hPD-L1 binding to hPD-1-expressing Jurkat cells
Procedure: The blocking of ligand binding was assayed by flow cytometry. […] The mixture was placed on ice for 30 minutes, washed 3 times with FACS buffer (PBS containing 0.3% BSA), and incubated with PE-labeled goat anti-human Fc on ice for another 30 minutes. Cells were washed three more times with FACS buffer and analyzed by flow cytometry. Data were analyzed using nonlinear regression of Prism software, and IC₅₀ values were calculated.

[6] = target: T2, hPD-1 (Sino Biological Inc., Catalog …); assay: SPR (Biacore), antibody captured on protein A chip, PD-1 in solution 0.625-10 nM, 1:1 Langmuir fit
Procedure: A protein A chip was used for detection. […] Then the flow rate was adjusted to 30 μl/min, and PD-1 solutions of different concentrations (0.625 nM, 1.25 nM, 2.5 nM, 5 nM, and 10 nM) were fed in sequence, with a binding time of 180 s and a dissociation time of 1,200 s.

[7] = target: T2, hPD-1 (Sino Biological Inc., Catalog …); assay: BLI (ForteBio Octet), biotinylated hPD-1 on streptavidin biosensor, antibody in solution, 1:1 global fit
Procedure: The assay was performed by coupling a hPD-1 fusion protein to a streptavidin biosensor using biotin.
as §1

T1 sequence (Q15116 25-288): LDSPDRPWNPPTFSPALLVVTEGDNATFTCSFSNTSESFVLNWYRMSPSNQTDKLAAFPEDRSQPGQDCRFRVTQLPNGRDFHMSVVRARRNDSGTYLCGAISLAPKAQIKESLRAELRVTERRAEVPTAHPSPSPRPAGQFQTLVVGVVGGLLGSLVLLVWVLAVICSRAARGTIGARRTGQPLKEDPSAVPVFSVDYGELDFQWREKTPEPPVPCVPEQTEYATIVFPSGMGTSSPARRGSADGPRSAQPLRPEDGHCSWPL
hPD-1 (Sino Biological Inc., Catalog No.: 10377-H03H-B) (human), sequence (Q15116 25-167): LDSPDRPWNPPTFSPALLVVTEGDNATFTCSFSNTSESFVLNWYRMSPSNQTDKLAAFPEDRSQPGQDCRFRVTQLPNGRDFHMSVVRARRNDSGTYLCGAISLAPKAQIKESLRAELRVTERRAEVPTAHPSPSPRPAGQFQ
T2 sequence (Q15116 25-167): as above

Kd [1] [nM]	EC50 [3] [nM]	Kd [4] [nM]	Binder	other results
	0.346		antibody CL7 (antibody, human IgG4, V domains shown) VH: QVQLVQSGVEVKKPGASVKVSCKASGYTFTNYYMYWVRQAPGQGLEWMGGINPSNGGTNFNEKFKNRVTLTTDSSTTTAYMELKSLQFDDTAVYYCAARDYRFDMGFEFWGQGTTVTVSS VL: EIVLTQSPATLSLSPGERATLSCRASKGVSTSGYSYLHWYQQKPGQAPRLLIYLASYLESGVPARFSGSGSGTDFTLTISSLEPEDFAVYYCQHSYSFPLTFGGGTKVEIK	
	0.399		antibody CL5 (antibody, human IgG4, V domains shown) VH: QVQLVQSGVEVKKPGASVKVSCKASGYTFTNYYMYWVRQAPGQGLEWMGGINPSNGGTNFNEKFKNRVTLTTDSSTTTAYMELKSLQFDDTAVYYCAARDYRFDMGFEYWGQGTTVTVSS VL: EIVLTQSPATLSLSPGERATLSCRASKGVSTSGYSYLHWYQQKPGQAPRLLIYLASYLESGVPARFSGSGSGTDFTLTISSLEPEDFAVYYCQHSYDLPLTFGGGTKVEIK	Assay for the functional activity EC50 [2]: 0.932 mg/L
	0.594		antibody CL9 (antibody, human IgG4, V domains shown) VH: QVQLVQSGVEVKKPGASVKVSCKASGYTFTNYYMYWVRQAPGQGLEWMGGINPSNGGTNFNEKFKNRVTLTTDSSTTTAYMELKSLQFDDTAVYYCAARDYKFDMGFEFWGQGTTVTVSS VL: EIVLTQSPATLSLSPGERATLSCRASKGVSTSGYSYLHWYQQKPGQAPRLLIYLASYLESGVPARFSGSGSGTDFTLTISSLEPEDFAVYYCQHSYGLPVTFGGGTKVEIK	
	0.451		antibody CL2 (antibody, human IgG4, V domains shown) VH: QVQLVQSGVEVKKPGASVKVSCKASGYTFTNYYMYWVRQAPGQGLEWMGGINPSNGGTNFNEKFKNRVTLTTDSSTTTAYMELKSLQFDDTAVYYCAARDYKFDMGFEYWGQGTTVTVSS VL: EIVLTQSPATLSLSPGERATLSCRASKGVSTSGYSYLHWYQQKPGQAPRLLIYLASYLESGVPARFSGSGSGTDFTLTISSLEPEDFAVYYCQHSYGLPLTFGGGTKVEIK	
	1.34		antibody CL6 (antibody, human IgG4, V domains shown) VH: QVQLVQSGVEVKKPGASVKVSCKASGYTFTNYYMYWVRQAPGQGLEWMGGINPSNGGTNFNEKFKNRVTLTTDSSTTTAYMELKSLQFDDTAVYYCAARDYRFDMGFEFWGQGTTVTVSS VL: EIVLTQSPATLSLSPGERATLSCRASKGVSTSGYSYLHWYQQKPGQAPRLLIYLASYLESGVPARFSGSGSGTDFTLTISSLEPEDFAVYYCQHSYDLPLTFGGGTKVEIK	

Second part, the binder before the results:

Binder	Kd [1] [nM]	EC50 [3] [nM]	Kd [4] [nM]	other results
CL1 VH (SEQ ID NO: 7) / CL1 VL (SEQ ID NO: 8), scFv (scFv, part only; not given: linker, domain order, tag, V domains shown, not shown: another chain or arm of the molecule; small tags and cut ends) VH: QVQLVQSGVEVKKPGASVKVSCKASGYTFTNYYMYWVRQAPGQGLEWMGGINPSNGGTNFNEKFKNRVTLTTDSSTTTAYMELKSLQFDDTAVYYCAARDYRLDMGFEFWGQGTTVTVSS VL: EIVLTQSPATLSLSPGERATLSCRASKGVSTSGYSYLHWYQQKPGQAPRLLIYLASYLESGVPARFSGSGSGTDFTLTISSLEPEDFAVYYCQHAYDLPLTFGGGTKVEIK	0.082			
antibody CL1 (antibody, human IgG4 S228P, kappa, V domains shown, also called anti-hPD-1 antibody CL1; CL1 VH / CL1 VL IgG4) VH: QVQLVQSGVEVKKPGASVKVSCKASGYTFTNYYMYWVRQAPGQGLEWMGGINPSNGGTNFNEKFKNRVTLTTDSSTTTAYMELKSLQFDDTAVYYCAARDYRLDMGFEFWGQGTTVTVSS VL: EIVLTQSPATLSLSPGERATLSCRASKGVSTSGYSYLHWYQQKPGQAPRLLIYLASYLESGVPARFSGSGSGTDFTLTISSLEPEDFAVYYCQHAYDLPLTFGGGTKVEIKR		0.208	0.0207	Assay for the functional activity EC50 [2]: 0.269 mg/L; IC50 [5]: 0.77 nM; Kd [6]: 0.606 nM; koff [6]: 0.0005 s⁻¹; kon [6]: 825000 M⁻¹ s⁻¹; Kd [7]: 0.0207 nM; koff [7]: 4.11e-05 s⁻¹; kon [7]: 1.98e+06 M⁻¹ s⁻¹
CL1 VH (SEQ ID NO: 7) / CL2 VL (SEQ ID NO: 38), scFv (scFv, part only; not given: linker, domain order, tag, V domains shown, not shown: another chain or arm of the molecule; small tags and cut ends) VH: QVQLVQSGVEVKKPGASVKVSCKASGYTFTNYYMYWVRQAPGQGLEWMGGINPSNGGTNFNEKFKNRVTLTTDSSTTTAYMELKSLQFDDTAVYYCAARDYRLDMGFEFWGQGTTVTVSS VL: EIVLTQSPATLSLSPGERATLSCRASKGVSTSGYSYLHWYQQKPGQAPRLLIYLASYLESGVPARFSGSGSGTDFTLTISSLEPEDFAVYYCQHSYGLPLTFGGGTKVEIK	0.447			
CL1 VH (SEQ ID NO: 7) / CL7 VL (SEQ ID NO: 40), scFv (scFv, part only; not given: linker, domain order, tag, V domains shown, not shown: another chain or arm of the molecule; small tags and cut ends) VH: QVQLVQSGVEVKKPGASVKVSCKASGYTFTNYYMYWVRQAPGQGLEWMGGINPSNGGTNFNEKFKNRVTLTTDSSTTTAYMELKSLQFDDTAVYYCAARDYRLDMGFEFWGQGTTVTVSS VL: EIVLTQSPATLSLSPGERATLSCRASKGVSTSGYSYLHWYQQKPGQAPRLLIYLASYLESGVPARFSGSGSGTDFTLTISSLEPEDFAVYYCQHSYSFPLTFGGGTKVEIK	0.149			
CL1 VH (SEQ ID NO: 7) / CL5 VL (SEQ ID NO: 10), scFv (scFv, part only; not given: linker, domain order, tag, V domains shown, not shown: another chain or arm of the molecule; small tags and cut ends) VH: QVQLVQSGVEVKKPGASVKVSCKASGYTFTNYYMYWVRQAPGQGLEWMGGINPSNGGTNFNEKFKNRVTLTTDSSTTTAYMELKSLQFDDTAVYYCAARDYRLDMGFEFWGQGTTVTVSS VL: EIVLTQSPATLSLSPGERATLSCRASKGVSTSGYSYLHWYQQKPGQAPRLLIYLASYLESGVPARFSGSGSGTDFTLTISSLEPEDFAVYYCQHSYDLPLTFGGGTKVEIK	0.143			
CL1 VH (SEQ ID NO: 7) / CL9 VL (SEQ ID NO: 12), scFv (scFv, part only; not given: linker, domain order, tag, V domains shown, not shown: another chain or arm of the molecule; small tags and cut ends) VH: QVQLVQSGVEVKKPGASVKVSCKASGYTFTNYYMYWVRQAPGQGLEWMGGINPSNGGTNFNEKFKNRVTLTTDSSTTTAYMELKSLQFDDTAVYYCAARDYRLDMGFEFWGQGTTVTVSS VL: EIVLTQSPATLSLSPGERATLSCRASKGVSTSGYSYLHWYQQKPGQAPRLLIYLASYLESGVPARFSGSGSGTDFTLTISSLEPEDFAVYYCQHSYGLPVTFGGGTKVEIK	0.518			
CL1 VH (SEQ ID NO: 7) / CL5 VL (SEQ ID NO: 10), IgG4 (antibody, V domains shown, Form IgG4) VH: QVQLVQSGVEVKKPGASVKVSCKASGYTFTNYYMYWVRQAPGQGLEWMGGINPSNGGTNFNEKFKNRVTLTTDSSTTTAYMELKSLQFDDTAVYYCAARDYRLDMGFEFWGQGTTVTVSS VL: EIVLTQSPATLSLSPGERATLSCRASKGVSTSGYSYLHWYQQKPGQAPRLLIYLASYLESGVPARFSGSGSGTDFTLTISSLEPEDFAVYYCQHSYDLPLTFGGGTKVEIK			0.076	
CL1 VH (SEQ ID NO: 7) / CL2 VL (SEQ ID NO: 38), IgG4 (antibody, V domains shown, Form IgG4) VH: QVQLVQSGVEVKKPGASVKVSCKASGYTFTNYYMYWVRQAPGQGLEWMGGINPSNGGTNFNEKFKNRVTLTTDSSTTTAYMELKSLQFDDTAVYYCAARDYRLDMGFEFWGQGTTVTVSS VL: EIVLTQSPATLSLSPGERATLSCRASKGVSTSGYSYLHWYQQKPGQAPRLLIYLASYLESGVPARFSGSGSGTDFTLTISSLEPEDFAVYYCQHSYGLPLTFGGGTKVEIK			0.189	
CL1 VH (SEQ ID NO: 7) / CL9 VL (SEQ ID NO: 12), IgG4 (antibody, V domains shown, Form IgG4) VH: QVQLVQSGVEVKKPGASVKVSCKASGYTFTNYYMYWVRQAPGQGLEWMGGINPSNGGTNFNEKFKNRVTLTTDSSTTTAYMELKSLQFDDTAVYYCAARDYRLDMGFEFWGQGTTVTVSS VL: EIVLTQSPATLSLSPGERATLSCRASKGVSTSGYSYLHWYQQKPGQAPRLLIYLASYLESGVPARFSGSGSGTDFTLTISSLEPEDFAVYYCQHSYGLPVTFGGGTKVEIK			0.229	
CL1 VH (SEQ ID NO: 7) / CL7 VL (SEQ ID NO: 40), IgG4 (antibody, V domains shown, Form IgG4) VH: QVQLVQSGVEVKKPGASVKVSCKASGYTFTNYYMYWVRQAPGQGLEWMGGINPSNGGTNFNEKFKNRVTLTTDSSTTTAYMELKSLQFDDTAVYYCAARDYRLDMGFEFWGQGTTVTVSS VL: EIVLTQSPATLSLSPGERATLSCRASKGVSTSGYSYLHWYQQKPGQAPRLLIYLASYLESGVPARFSGSGSGTDFTLTISSLEPEDFAVYYCQHSYSFPLTFGGGTKVEIK			0.061	
